Assay results published in patent publication US20240261333A1, “NOVEL TARGETS FOR ENHANCING ANTI-TUMOR IMMUNITY” (THE BROAD INSTITUTE, INC., priority 2021, published 2024).

Key:
[1] = target: POF1B (UniProt Q8WVV4); experiment: co-IP, IgG control, C-FLAG B3GNT2 cell lysate, mass spectrometry
[2] = target: RPL35 (UniProt P42766); experiment: as above
[3] = target: RPS8 (UniProt P62241); experiment: as above
[4] = target: TXN (UniProt P10599); experiment: as above
[5] = target: EMD (UniProt P50402); experiment: as above
[6] = target: LIMA1 (UniProt Q9UHB6); experiment: as above
[7] = target: NCCRP1 (UniProt Q6ZVX7); experiment: as above
[8] = target: TMEM59 (UniProt Q9BXS4); experiment: as above
[9] = target: HIST1H1E (UniProt P10412); experiment: as above
[10] = target: CDSN (UniProt Q15517); experiment: as above
[11] = target: EIF4G1 (UniProt Q04637); experiment: as above
[12] = target: ITGB3 (UniProt P05106); experiment: as above
[13] = target: HSPB1 (UniProt P04792); experiment: as above
[14] = target: DNAJA2 (UniProt O60884); experiment: as above
[15] = target: DEFA3 (UniProt P59666); experiment: as above
[16] = target: RPS13 (UniProt P62277); experiment: as above
[17] = target: RPS23 (UniProt P62266); experiment: as above
[18] = target: RPS2 (UniProt P15880); experiment: as above
[19] = target: SRSF3 (UniProt P84103); experiment: as above
[20] = target: RPL27A (UniProt P46776); experiment: as above
[21] = target: RPS19 (UniProt P39019); experiment: as above
[22] = target: DDX20 (UniProt Q9UHI6); experiment: as above
[23] = target: MTCH2 (UniProt Q9Y6C9); experiment: as above
[24] = target: TAGLN (UniProt Q01995); experiment: as above
[25] = target: PSMA7 (UniProt O14818); experiment: as above
[26] = target: ARG1 (UniProt P05089); experiment: as above
[27] = target: TNKS1BP1 (UniProt Q9C0C2); experiment: as above
[28] = target: PBXIP1 (UniProt Q96AQ6); experiment: as above
[29] = target: MTDH (UniProt Q86UE4); experiment: as above
[30] = target: RPS16 (UniProt P62249); experiment: as above
[31] = target: HNRNPU (UniProt Q00839); experiment: as above
[32] = target: RPL22 (UniProt P35268); experiment: as above
[33] = target: RPL3 (UniProt P39023); experiment: as above
[34] = target: RPL19 (UniProt P84098); experiment: as above
[35] = target: RPL5 (UniProt P46777); experiment: as above
[36] = target: SRSF1 (UniProt Q07955); experiment: as above
[37] = target: RPL37A (UniProt P61513); experiment: as above
[38] = target: CFL1 (UniProt P23528); experiment: as above
[39] = target: RPS18 (UniProt P62269); experiment: as above
[40] = target: SERPINB12 (UniProt Q96P63); experiment: co-IP with anti-FLAG, mass spectrometry; N-FLAG B3GNT2
[41] = target: PCMT1 (UniProt P22061); experiment: as above

Chain of CFL1 (P23528 2-166 limits assumed): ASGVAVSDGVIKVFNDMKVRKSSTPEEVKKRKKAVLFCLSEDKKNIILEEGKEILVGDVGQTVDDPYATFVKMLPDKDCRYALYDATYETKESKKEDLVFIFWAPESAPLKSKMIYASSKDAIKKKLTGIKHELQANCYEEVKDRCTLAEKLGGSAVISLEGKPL
Chain of CDSN (Q15517 33-529 limits assumed): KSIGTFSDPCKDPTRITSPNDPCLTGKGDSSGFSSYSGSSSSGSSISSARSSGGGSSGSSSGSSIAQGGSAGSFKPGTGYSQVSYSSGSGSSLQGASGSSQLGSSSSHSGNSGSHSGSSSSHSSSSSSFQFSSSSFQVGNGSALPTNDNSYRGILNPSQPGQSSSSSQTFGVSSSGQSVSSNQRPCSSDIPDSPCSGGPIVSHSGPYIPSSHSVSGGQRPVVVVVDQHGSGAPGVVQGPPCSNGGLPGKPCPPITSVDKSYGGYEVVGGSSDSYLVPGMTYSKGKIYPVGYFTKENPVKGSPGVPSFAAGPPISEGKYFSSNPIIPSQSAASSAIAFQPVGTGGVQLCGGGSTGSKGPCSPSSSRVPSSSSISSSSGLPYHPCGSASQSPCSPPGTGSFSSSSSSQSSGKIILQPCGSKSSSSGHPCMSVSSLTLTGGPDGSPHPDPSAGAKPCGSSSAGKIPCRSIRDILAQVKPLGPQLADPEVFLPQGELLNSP
Chain of EIF4G1 (Q04637 41-1599 limits assumed): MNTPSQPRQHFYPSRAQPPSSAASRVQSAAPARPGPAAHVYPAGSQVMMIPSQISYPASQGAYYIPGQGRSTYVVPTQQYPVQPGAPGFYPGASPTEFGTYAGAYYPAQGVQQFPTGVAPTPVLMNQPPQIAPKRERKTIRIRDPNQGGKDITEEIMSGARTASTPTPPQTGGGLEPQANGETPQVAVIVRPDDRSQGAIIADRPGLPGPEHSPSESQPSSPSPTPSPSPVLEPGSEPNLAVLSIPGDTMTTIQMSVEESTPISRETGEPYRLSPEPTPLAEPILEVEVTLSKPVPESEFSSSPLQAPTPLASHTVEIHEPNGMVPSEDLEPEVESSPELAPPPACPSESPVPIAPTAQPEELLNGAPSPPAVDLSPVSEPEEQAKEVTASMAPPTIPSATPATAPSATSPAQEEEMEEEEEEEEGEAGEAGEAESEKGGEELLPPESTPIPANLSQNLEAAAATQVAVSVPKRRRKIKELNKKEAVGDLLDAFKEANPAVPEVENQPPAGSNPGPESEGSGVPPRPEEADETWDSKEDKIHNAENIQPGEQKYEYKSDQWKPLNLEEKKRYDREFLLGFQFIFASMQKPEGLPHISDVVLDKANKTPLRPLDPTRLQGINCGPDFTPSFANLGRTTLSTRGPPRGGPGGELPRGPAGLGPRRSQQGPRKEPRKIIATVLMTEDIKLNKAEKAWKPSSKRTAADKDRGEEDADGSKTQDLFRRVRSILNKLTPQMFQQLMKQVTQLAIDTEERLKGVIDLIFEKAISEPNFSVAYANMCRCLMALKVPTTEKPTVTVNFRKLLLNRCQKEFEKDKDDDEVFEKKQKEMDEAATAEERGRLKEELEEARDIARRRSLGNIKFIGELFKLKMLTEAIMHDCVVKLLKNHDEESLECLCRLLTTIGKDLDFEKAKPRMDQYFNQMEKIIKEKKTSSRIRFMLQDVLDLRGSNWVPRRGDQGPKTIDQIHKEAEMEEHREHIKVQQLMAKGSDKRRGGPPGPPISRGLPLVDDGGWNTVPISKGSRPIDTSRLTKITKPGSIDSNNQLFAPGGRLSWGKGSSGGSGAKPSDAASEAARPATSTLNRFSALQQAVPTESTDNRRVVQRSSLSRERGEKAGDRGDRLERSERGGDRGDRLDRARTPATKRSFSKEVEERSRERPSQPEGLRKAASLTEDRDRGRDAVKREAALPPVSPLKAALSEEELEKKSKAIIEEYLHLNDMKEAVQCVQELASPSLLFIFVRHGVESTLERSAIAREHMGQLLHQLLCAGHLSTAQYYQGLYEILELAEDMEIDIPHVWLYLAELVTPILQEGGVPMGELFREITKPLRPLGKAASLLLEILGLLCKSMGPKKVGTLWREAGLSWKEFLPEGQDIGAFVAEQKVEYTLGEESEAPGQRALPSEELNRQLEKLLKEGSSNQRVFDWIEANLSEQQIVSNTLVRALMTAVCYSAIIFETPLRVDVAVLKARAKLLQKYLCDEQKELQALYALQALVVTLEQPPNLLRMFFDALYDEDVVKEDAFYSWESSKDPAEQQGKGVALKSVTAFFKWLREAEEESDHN
Chain of TNKS1BP1 (Q9C0C2 whole entry): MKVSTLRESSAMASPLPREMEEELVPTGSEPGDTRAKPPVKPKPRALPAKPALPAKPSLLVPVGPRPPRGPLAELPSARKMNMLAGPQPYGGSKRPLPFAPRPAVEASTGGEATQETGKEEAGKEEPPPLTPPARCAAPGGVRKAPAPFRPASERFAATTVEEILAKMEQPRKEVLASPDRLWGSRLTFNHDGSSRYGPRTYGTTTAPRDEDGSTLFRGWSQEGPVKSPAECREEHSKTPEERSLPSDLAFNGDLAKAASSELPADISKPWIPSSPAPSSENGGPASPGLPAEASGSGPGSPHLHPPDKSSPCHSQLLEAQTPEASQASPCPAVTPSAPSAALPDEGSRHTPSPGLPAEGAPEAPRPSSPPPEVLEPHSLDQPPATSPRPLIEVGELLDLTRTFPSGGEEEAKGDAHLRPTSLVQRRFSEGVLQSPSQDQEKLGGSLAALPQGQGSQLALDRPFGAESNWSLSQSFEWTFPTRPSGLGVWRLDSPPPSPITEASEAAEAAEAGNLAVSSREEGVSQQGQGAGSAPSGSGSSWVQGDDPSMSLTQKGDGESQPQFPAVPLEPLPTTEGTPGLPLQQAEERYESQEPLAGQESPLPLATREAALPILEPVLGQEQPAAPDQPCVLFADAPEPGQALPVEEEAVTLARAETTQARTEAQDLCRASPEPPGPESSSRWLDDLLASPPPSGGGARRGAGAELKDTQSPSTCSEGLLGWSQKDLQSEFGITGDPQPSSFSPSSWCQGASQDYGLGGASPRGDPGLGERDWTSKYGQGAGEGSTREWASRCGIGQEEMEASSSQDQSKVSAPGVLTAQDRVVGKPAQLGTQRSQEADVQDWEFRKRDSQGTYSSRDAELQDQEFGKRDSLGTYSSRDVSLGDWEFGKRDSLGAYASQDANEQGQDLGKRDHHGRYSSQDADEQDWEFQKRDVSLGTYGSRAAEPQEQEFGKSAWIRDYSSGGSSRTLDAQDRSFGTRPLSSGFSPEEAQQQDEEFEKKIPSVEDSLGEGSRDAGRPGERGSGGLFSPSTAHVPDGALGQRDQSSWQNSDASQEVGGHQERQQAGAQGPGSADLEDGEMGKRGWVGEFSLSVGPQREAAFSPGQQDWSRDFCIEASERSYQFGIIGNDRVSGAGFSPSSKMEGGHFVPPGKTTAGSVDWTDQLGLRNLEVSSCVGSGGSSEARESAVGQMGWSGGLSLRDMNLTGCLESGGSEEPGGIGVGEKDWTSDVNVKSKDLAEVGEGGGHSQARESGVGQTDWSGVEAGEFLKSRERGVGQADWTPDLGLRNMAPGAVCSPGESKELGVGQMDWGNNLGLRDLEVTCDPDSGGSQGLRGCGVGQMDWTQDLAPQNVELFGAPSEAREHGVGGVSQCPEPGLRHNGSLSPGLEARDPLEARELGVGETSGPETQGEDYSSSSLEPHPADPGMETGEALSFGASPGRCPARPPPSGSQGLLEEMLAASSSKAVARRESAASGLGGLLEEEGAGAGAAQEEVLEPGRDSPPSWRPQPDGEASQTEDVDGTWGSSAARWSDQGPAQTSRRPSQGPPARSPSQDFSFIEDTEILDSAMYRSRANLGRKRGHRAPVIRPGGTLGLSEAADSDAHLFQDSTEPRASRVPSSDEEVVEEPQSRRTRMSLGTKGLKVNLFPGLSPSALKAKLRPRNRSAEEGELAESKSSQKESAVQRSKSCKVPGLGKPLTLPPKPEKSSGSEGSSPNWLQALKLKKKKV
Chain of TMEM59 (Q9BXS4 36-323 limits assumed): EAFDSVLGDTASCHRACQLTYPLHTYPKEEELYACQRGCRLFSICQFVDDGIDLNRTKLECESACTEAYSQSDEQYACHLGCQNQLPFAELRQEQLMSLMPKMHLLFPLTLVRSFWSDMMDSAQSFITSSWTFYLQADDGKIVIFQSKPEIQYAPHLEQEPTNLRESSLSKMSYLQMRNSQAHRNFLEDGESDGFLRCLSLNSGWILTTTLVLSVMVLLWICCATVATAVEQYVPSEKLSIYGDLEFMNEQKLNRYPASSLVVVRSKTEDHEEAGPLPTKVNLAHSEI
Chain of LIMA1 (Q9UHB6 other isoform, or with tags, fused parts or gaps limits assumed): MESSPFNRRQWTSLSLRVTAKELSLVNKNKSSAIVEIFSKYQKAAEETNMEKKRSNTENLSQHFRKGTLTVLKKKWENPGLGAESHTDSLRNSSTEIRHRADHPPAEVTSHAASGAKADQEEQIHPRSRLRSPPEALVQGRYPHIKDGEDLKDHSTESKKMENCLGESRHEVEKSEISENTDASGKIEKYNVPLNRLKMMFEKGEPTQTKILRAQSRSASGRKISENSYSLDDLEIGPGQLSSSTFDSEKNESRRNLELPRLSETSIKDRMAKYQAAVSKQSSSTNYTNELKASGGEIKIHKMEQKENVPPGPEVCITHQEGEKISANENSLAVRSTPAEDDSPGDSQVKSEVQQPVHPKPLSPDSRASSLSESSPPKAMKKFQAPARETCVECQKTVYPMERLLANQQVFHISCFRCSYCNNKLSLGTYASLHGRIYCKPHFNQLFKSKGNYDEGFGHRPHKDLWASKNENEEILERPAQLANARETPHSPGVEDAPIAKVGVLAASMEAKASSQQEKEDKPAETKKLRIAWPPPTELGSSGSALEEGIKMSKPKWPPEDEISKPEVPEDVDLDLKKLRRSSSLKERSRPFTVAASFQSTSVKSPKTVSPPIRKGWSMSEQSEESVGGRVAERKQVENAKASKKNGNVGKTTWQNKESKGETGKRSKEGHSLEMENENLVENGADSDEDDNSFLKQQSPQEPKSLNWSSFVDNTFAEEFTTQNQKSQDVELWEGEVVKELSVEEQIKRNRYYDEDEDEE
Chain of DEFA3 (P59666 65-94 limits assumed): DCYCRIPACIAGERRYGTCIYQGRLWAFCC

Substance: IgG control (Millipore Sigma 12-371) (antibody)
- co-IP mass spectrometry count [1]: 0
- co-IP mass spectrometry count [2]: 0
- co-IP mass spectrometry count [3]: 6
- co-IP mass spectrometry count [4]: 0
- co-IP mass spectrometry count [5]: 2
- co-IP mass spectrometry count [6]: 0
- co-IP mass spectrometry count [7]: 0
- co-IP mass spectrometry count [8]: 0
- co-IP mass spectrometry count [9]: 0
- co-IP mass spectrometry count [10]: 0
- co-IP mass spectrometry count [11]: 2
- co-IP mass spectrometry count [12]: 0
- co-IP mass spectrometry count [13]: 0
- co-IP mass spectrometry count [14]: 0
- co-IP mass spectrometry count [15]: 5
- co-IP mass spectrometry count [16]: 2
- co-IP mass spectrometry count [17]: 9
- co-IP mass spectrometry count [18]: 12
- co-IP mass spectrometry count [19]: 3
- co-IP mass spectrometry count [20]: 0
- co-IP mass spectrometry count [21]: 3
- co-IP mass spectrometry count [22]: 0
- co-IP mass spectrometry count [23]: 0
- co-IP mass spectrometry count [24]: 0
- co-IP mass spectrometry count [25]: 0
- co-IP mass spectrometry count [26]: 4
- co-IP mass spectrometry count [27]: 2
- co-IP mass spectrometry count [28]: 0
- co-IP mass spectrometry count [29]: 0
- co-IP mass spectrometry count [30]: 8
- co-IP mass spectrometry count [31]: 0
- co-IP mass spectrometry count [32]: 0
- co-IP mass spectrometry count [33]: 5
- co-IP mass spectrometry count [34]: 2
- co-IP mass spectrometry count [35]: 0
- co-IP mass spectrometry count [36]: 3
- co-IP mass spectrometry count [37]: 3
- co-IP mass spectrometry count [38]: 3
- co-IP mass spectrometry count [39]: 9

Substance: N-terminal FLAG tagged B3GNT2 (from UniProt Q9NY97 1-397) (enzyme)
- co-IP mass spectrometry count [40]: 4
- co-IP mass spectrometry count [41]: 4
